Measurements: patent US20070093415A1
Like-named read-outs stand apart in the source and are kept apart here.

Key:
[1] = target: Aβ1-40 amyloid (amyloid form of the Aβ1-40 peptide); test: ELISA on immobilized Aβ1-40 amyloid, anti-Thio detection
[2] = target: Aβ1-40 amyloid (amyloid form of the Aβ1-40 peptide); test: as above; remark: listed apart in the source

Chain of Thio (recombinant thioredoxin without the Aβ-peptide binding sequence) (P0AA25 2-109): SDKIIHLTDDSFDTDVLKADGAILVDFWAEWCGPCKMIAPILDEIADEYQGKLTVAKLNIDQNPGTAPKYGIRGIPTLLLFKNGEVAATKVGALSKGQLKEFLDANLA

## Thio (recombinant thioredoxin without the Aβ-peptide binding sequence) (from UniProt P0AA25 2-109)
[1]
  concentration below which no binding was seen: > 200 µM
[2]
  concentration below which no binding was seen: > 100 µM
